This is an account of results in patent US20230124669A1 (ADAGENE, published 2023).

Assay [1] deals with T1, human CD3 (E and δ chain heterodimer) fused with human Fc fragment (human, UniProt P07766 23-126; P04234 22-105).
T1 construct: ELISA coating antigen; the text prints 'E and 6 chain heterodimer', read as epsilon and delta
The assay is described as follows: ELISA, plate coated with 2 µg/mL antigen-human Fc fusion, serially diluted IgG. The method, then:
2 μg/mL of human HER2 or CD3 (E and 6 chain heterodimer) fused with human Fc fragment, were prepared and used to coat the ELISA plate at 2-8′C overnight. After washing and blocking, 50 μL serial diluted IgGs were added and incubated at 37′C for 1 hour. Plates were washed three times and then incubated with 50 μL/well TMB substrate at room temperature for about 20 minutes. Absorbance at 450 nm was measured after the reaction was stopped. The data was analyzed by GraphPad Prism 6 with nonlinear fitting.
(In general: An ELISA detects its analyte on a solid surface through an enzyme-linked reagent.)

Assay [2] has as its target HER2 on HER2-positive tumor cells (SKOV3) (UniProt P04626 23-1255). The assay is described as follows: cell-based or functional assay.
The target in assay [3] is T2, mouse CD137 expressed on cells (mouse, UniProt P20334 24-256).
T2 construct: whole, on cells
T2 sequence (looked up): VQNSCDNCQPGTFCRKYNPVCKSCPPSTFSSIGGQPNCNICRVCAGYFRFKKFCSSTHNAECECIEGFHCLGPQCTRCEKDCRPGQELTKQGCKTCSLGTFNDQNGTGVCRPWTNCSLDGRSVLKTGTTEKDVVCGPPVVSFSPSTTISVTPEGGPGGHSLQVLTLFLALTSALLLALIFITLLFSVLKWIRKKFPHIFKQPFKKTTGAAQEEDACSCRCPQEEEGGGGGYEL
The assay is described as follows: told in words; cross-reactivity by flow cytometry on antigen-expressing cells (FIG. 13). The method, then: (§1) The affinity of antibodies was also assessed against human, monkey and mouse CD137 or PDL1 that were transiently expressed on the surface of yeast or HEK293F cells. Briefly, yeast or HEK293F cells were transfected with a plasmid expressing human, monkey or mouse CD137 or PDL1. After 48 hours, the transfected cells were harvested and then washed. Cells were then incubated with IgGs (each at 100 nM) at 4° C. in the shaking bed for 1 hour shaking at 300 rpm, protected from light. For simultaneously binding, cell were incubated with biotinylated human CD137 or PDL1 protein fused with human Fc fragment, and SA-PE (streptavidin, phycoerythrin conjugated). For cross-reactivity, cells were incubated with Alexa Fluor 647 conjugated mouse anti-human Fc antibodies. The mixtures were incubated at 4° C. in the shaking bed for 30 minutes shaking at 300 rpm, protected from light. The cells were washed once prior to analysis by flow cytometry (Beckman CytoFlex).
For orientation: A flow cytometer gives signals particle by particle.

The target in assay [4] is T2, mouse CD137 expressed on cells. The assay can be described thus: flow cytometry, antigen transiently expressed on yeast or HEK293F cells, IgG at 100 nM, Alexa Fluor 647 anti-human Fc detection (FIG. 13). Here is the method:
as §1

Assay [5] has as its target T3, mouse PDL1 expressed on cells (mouse, UniProt Q9EP73 19-290).
T3 construct: whole, on cells
The assay is described as above. The method, then: as §1

The target of assay [6] is T4, Human CD137 (SPR analyte) (human, UniProt Q07011 24-186, limits assumed).
T4 construct: also called CD137H
The assay is described as follows: SPR (Biacore T200), antibody captured by anti-human IgG on CM5 chip, antigen injected as analyte, 1:1 Langmuir fit. The method, then: (§2) Biacore T200 (GE Healthcare) was used as a high performance system for real-time biomolecular interaction analysis, using surface plasmon resonance technology (“SPR”). During the measurement, anti-human IgG monoclonal antibody from the Human Antibody Capture Kit provided by Biacore was immobilized on CM5 chips, and IgG sample was injected onto sensor chip. Analytes were injected onto IgG captured flow cell for binding kinetic analysis in HBS-EP buffer.
(In general: Surface plasmon resonance follows binding to a sensor surface in real time, without labels.)

The target in assay [7] is T5, Human PDL1 (SPR analyte) (human, UniProt Q9NZQ7 19-238, limits assumed).
T5 construct: also called PDL1H
The assay is described as above. The method, then:
as §2

In assay [8] the target is T3, mouse PDL1 expressed on cells. The assay is described as follows: told in words; cross-reactivity by flow cytometry on antigen-expressing cells (FIG. 13). The method, then: as §1

T3 sequence (Q9EP73 19-290): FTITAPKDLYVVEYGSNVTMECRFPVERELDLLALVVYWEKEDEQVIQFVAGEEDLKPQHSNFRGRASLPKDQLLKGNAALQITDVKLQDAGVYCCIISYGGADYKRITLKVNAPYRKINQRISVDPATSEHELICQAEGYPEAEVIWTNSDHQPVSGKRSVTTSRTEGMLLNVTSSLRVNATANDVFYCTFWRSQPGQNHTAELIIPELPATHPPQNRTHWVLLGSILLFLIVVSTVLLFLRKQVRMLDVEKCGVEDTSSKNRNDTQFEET
T1 sequence (P07766 23-126, stated change not applied, chain 1 of 2): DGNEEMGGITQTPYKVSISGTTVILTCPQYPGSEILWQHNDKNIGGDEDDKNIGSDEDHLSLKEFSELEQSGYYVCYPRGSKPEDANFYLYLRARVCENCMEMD
T1 sequence (P04234 22-105, stated change not applied, chain 2 of 2): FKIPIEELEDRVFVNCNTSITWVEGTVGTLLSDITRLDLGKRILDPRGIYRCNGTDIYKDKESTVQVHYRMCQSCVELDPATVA
T5 sequence (Q9NZQ7 19-238 limits assumed): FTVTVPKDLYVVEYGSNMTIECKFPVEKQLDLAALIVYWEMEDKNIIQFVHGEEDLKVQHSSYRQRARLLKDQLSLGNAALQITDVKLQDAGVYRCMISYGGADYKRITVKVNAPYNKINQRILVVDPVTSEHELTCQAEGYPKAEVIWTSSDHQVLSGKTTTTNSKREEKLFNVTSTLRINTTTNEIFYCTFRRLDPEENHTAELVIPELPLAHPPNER

B1: TY24052 (bispecific antibody)
heavy: not shown
chain: not shown
light: EVGSYPYDDPDCPSHDSDCDNSGRSAGGGGTPLGLAGSGGSQAVVTQEPSLTVSPGGTVTLTCGSSTGAVTTSNYANWVQQKPGQAPRGLIGGTNKRAPGVPARFSGSLLGGKAALTLSGAQPEDEAEYYCALWYSNLWVFGGGTKLTVLRGGGGSGGGGSGGGGSGGGGSEVQLVESGGGLVQPGGSLRLSCAASGFTFNTYAMNWVRQAPGKGLEWVGRIRSKYNNYATYYADSVKGRFTISRDDSKNTLYLQMNSLRAEDTAVYYCVRHGNFGNSYVSWFAYWGQGTLVTVSSEPKSSDKTHTCPPCPAPELLGGPSVFLFPPKPKDTLMISRTPEVTCVVVDVSHEDPEVKFNWYVDGVEVHNAKTKPREEQYASTYRVVSVLTVLHQDWLNGKEYKCKVSNKALPAPIEKTISKAKGQPREPQVYTDPPSRDELTKNQVSLTCLVDGFYPSDIAVEWESNGQPENCYKTTPPVLDSDGSFFLYSKLTVDKSRWQQGNVFSCSVMHEALHNHYTQDSLSLSPGK
notes: Masked, cleavable version of TY24051, uncleaved; IgG1 Fc with TYM13 mutations and N297A; also called SAFEbody
B1: in assay [1], the binding result was “binds”. Besides, the “EC50 of T-cell mediated killing of SKOV3 cells, fold increase compared with TY24051” value in assay [2] was approximately 800 fold.

B2: TY24051 (bispecific antibody)
heavy: not shown
chain: not shown
light: QAVVTQEPSLTVSPGGTVTLTCGSSTGAVTTSNYANWVQQKPGQAPRGLIGGTNKRAPGVPARFSGSLLGGKAALTLSGAQPEDEAEYYCALWYSNLWVFGGGTKLTVLRGGGGSGGGGSGGGGSGGGGSEVQLVESGGGLVQPGGSLRLSCAASGFTFNTYAMNWVRQAPGKGLEWVGRIRSKYNNYATYYADSVKGRFTISRDDSKNTLYLQMNSLRAEDTAVYYCVRHGNFGNSYVSWFAYWGQGTLVTVSSEPKSSDKTHTCPPCPAPELLGGPSVFLFPPKPKDTLMISRTPEVTCVVVDVSHEDPEVKFNWYVDGVEVHNAKTKPREEQYASTYRVVSVLTVLHQDWLNGKEYKCKVSNKALPAPIEKTISKAKGQPREPQVYTDPPSRDELTKNQVSLTCLVDGFYPSDIAVEWESNGQPENCYKTTPPVLDSDGSFFLYSKLTVDKSRWQQGNVFSCSVMHEALHNHYTQDSLSLSPGK
notes: Anti-HER2 Fab arm and anti-CD3 scFv arm, IgG1 Fc with TYM13 mutations and N297A; also called HER2×CD3 bispecific T-cell-engaging antibody; parental bispecific Fab X scFv in IgG1
For B2, the binding result in assay [1] was “binds”.

B3: anti-CD137 Fv (antibody, V domains shown)
VH: EVQLVESGGGLVQPGGSLRLSCAASGFSLSTGGVGVGWIRQAPGKGLEWLALIDWADDKYYSPSLKSRLTISRDNSKNTLYLQLNSLRAEDTAVYYCARGGSDTVIGDWFAYWGQGTLVTVSS
VL: DIQLTQSPSSLSASVGDRVTITCRASQSIGSYLAWYQQKPGKAPKLLIYDASNLETGVPSRFSGSGSGTDFTLTISSLQPEDFATYYCQQGYYLWTFGQGTKVEIKR
notes: Named only as the anti-CD137 Fv used in the bispecific and parental antibodies; also called CD137 VH / CD137 VL
For the molecule B3, the binding result in assay [3] was “binds”.

B4: TY22121 (bispecific antibody, human IgG1, kappa)
heavy: DIQLTQSPSSLSASVGDRVTITCRASQSIPSFLNWYQQKPGKAPKLLIYAASSLQSGVPSRFSGSGSGTDFTLTISSLQPEDFATYYCQHYISWPRQFTFGQGTKVEIKRTVAAPSVFIFPPSDEQLKSGTASVVCLLNNFYPREAKVQWKVDNALQSGNSQESVTEQDSKDSTYSLSSTLTLSKADYEKHKVYACEVTHQGLSSPVTKSFNRGEC
light: not shown
notes: Morrison format: anti-PDL1 Fab, anti-CD137 scFv at the C-terminus of the Fc; IgG1; heavy chain = VH-CH1-hinge-CH2-CH3-linker-scFv; also called PDL1 × CD137 bispecific antibody, format TYF01
For B4, the binding result in assay [4] and in assay [5] was “binds” each time. Moreover, the dissociation constant (Kd) (in general, the constant that tells how readily two partners part at equilibrium) was 14.1 nM in assay [6] and 6.9 nM in assay [7].

B5: TY22148 (bispecific antibody, human IgG1, kappa)
heavy: DIQLTQSPSSLSASVGDRVTITCRASQSIPSFLNWYQQKPGKAPKLLIYAASSLQSGVPSRFSGSGSGTDFTLTISSLQPEDFATYYCQHYISWPRQFTFGQGTKVEIKRTVAAPSVFIFPPSDEQLKSGTASVVCLLNNFYPREAKVQWKVDNALQSGNSQESVTEQDSKDSTYSLSSTLTLSKADYEKHKVYACEVTHQGLSSPVTKSFNRGEC
light: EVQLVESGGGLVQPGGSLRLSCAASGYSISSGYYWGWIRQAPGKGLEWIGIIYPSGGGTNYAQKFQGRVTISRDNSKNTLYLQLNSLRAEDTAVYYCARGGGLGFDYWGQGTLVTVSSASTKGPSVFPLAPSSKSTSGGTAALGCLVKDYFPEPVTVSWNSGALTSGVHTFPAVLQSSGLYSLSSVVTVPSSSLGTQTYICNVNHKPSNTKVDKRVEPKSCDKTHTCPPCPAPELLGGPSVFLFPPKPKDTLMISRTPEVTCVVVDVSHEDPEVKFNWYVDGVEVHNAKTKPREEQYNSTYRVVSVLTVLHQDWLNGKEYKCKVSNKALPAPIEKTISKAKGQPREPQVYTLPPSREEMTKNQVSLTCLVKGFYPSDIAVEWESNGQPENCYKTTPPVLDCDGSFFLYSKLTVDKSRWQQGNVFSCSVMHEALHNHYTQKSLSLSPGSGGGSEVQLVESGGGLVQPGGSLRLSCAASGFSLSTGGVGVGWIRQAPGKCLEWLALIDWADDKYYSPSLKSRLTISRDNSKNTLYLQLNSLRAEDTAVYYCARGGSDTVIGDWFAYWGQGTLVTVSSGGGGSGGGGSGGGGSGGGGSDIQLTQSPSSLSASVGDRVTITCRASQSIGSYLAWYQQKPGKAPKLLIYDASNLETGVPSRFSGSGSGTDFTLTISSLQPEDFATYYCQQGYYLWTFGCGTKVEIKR
notes: Morrison format: anti-PDL1 Fab, anti-CD137 scFv; IgG1 with N390C:S400'C; also called PDL1 × CD137 bispecific antibody, format TYF02
As to B5, the binding result in assay [4] and in assay [5] was “binds” each time. For the same molecule, the Kd in assay [6] was 6.7 nM; in assay [7], 7.7 nM.

B6: anti-PDL1 Fv (antibody, V domains shown)
VH: EVQLVESGGGLVQPGGSLRLSCAASGYSISSGYYWGWIRQAPGKGLEWIGIIYPSGGGTNYAQKFQGRVTISRDNSKNTLYLQLNSLRAEDTAVYYCARGGGLGFDYWGQGTLVTVSS
VL: DIQLTQSPSSLSASVGDRVTITCRASQSIPSFLNWYQQKPGKAPKLLIYAASSLQSGVPSRFSGSGSGTDFTLTISSLQPEDFATYYCQHYISWPRQFTFGQGTKVEIKR
notes: Named only as the anti-PDL1 Fv used in the bispecific and parental antibodies; also called PDL1 VH / PDL1 VL
Consider B6, for which, in assay [8], the binding result was “binds”.
